The test system of the data set is F1*sub RNA substrate (template-directed ligation). Kind of data set: fraction ligated after 30 min (ligated reads / total reads); higher = more ligase activity; sequences stand for … in GAGACCGCAACTGAAAAGTTGT…AGTTCTGCACGTAGAAGCAAAAGGC
The following applies: 42 °C. In a few lines: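 Templates from an oligo pool were PCR-amplified, transcribed with T7 and gel-purified to give the ribozyme variants. Ligated and unligated products were separated on gel, reverse transcribed using barcoded primers, and read on a MiSeq. A quality filter of ≥20 was applied to core bases. Fraction ligated was taken as ligated reads as a share of all reads per variant.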
For the sequence TATACTGTCTAAGACACTTTGGATGGGTTGA [3d781], the fraction ligated turned out to be 0.651.

TATACTGTGTAAGACACTTTGGATGGGTTGA [3d780] gave a fraction ligated of 0.8.

TATACTTCGTAAGACACTTTGGATGGGTTGA [3d778] had a fraction ligated of 0.724.

Take TATACTTGCGAAGACACTTTGGATGGGTTGA [3d814]: the fraction ligated amounted to 0.649.

For TATACTTGCGTAAACACTTTGGATGGGTTGA [3d816], the fraction ligated is 0.464.

TATACTTGCGTAAGAACTTTGGATGGGTTGA [3d818]: the fraction ligated worked out at 0.768.

Sequence TATACTTGCGTAAGACACTTGGATGGGTTGA [3d821] came in with a fraction ligated of 0.485.

For TATACTTGCGTAAGACACTTTGATGGGTTGA [3d822], the fraction ligated came out at 0.285.

Consider TATACTTGCGTAAGACACTTTGGAGGGTTGA [3d824], for which the fraction ligated worked out at 0.0191.

In the case of TATACTTGCGTAAGACACTTTGGATGGGTTA [3d826], the fraction ligated was 0.0217.

The sequence TATACTTGCGTAAGACACTTTGGATGGGTTG [3d827] gave a fraction ligated of 0.272.

TATACTTGCGTAAGACACTTTGGATGGGTTGA [2d73] registered a fraction ligated of 0.703.

TATACTTGCGTAAGACACTTTGGATGGTTGA [3d825] came in with a fraction ligated of 0.0234.

Turning to TATACTTGCGTAAGACACTTTGGTGGGTTGA [3d823], the fraction ligated was 0.014.

TATACTTGCGTAAGACATTTGGATGGGTTGA [3d820] yielded a fraction ligated of 0.722.

Take TATACTTGCGTAAGACCTTTGGATGGGTTGA [3d819]: the fraction ligated was 0.629.

Consider TATACTTGCGTAAGCACTTTGGATGGGTTGA [3d817], for which the fraction ligated was determined as 0.739.

With TATACTTGCGTAGACACTTTGGATGGGTTGA [3d815], the fraction ligated was 0.435.

TATACTTGCTAAGACACTTTGGATGGGTTGA [3d813] had a fraction ligated of 0.669.

TATACTTGGTAAGACACTTTGGATGGGTTGA [3d812] gave a fraction ligated of 0.653.

Sequence TATACTTGTCAAGACACTTTGGATGGGTTGA [3d843] returned a fraction ligated of 0.705.

Sequence TATACTTGTCGAAACACTTTGGATGGGTTGA [3d858] showed a fraction ligated of 0.756.

For TATACTTGTCGAAGAACTTTGGATGGGTTGA [3d860], the fraction ligated was determined as 0.748.

As for TATACTTGTCGAAGACACTTGGATGGGTTGA [3d863], the fraction ligated is 0.743.

On to TATACTTGTCGAAGACACTTTGATGGGTTGA [3d864], for which the fraction ligated is 0.755.

Consider TATACTTGTCGAAGACACTTTGGAGGGTTGA [3d866], for which the fraction ligated came out at 0.0186.

TATACTTGTCGAAGACACTTTGGATGGGTTA [3d868]: the fraction ligated was determined as 0.0412.

In the case of TATACTTGTCGAAGACACTTTGGATGGGTTG [3d869], the fraction ligated worked out at 0.61.

For the sequence TATACTTGTCGAAGACACTTTGGATGGGTTGA [2d76], the fraction ligated was determined as 0.761.

On to TATACTTGTCGAAGACACTTTGGATGGTTGA [3d867], for which the fraction ligated is 0.0528.

TATACTTGTCGAAGACACTTTGGTGGGTTGA [3d865] gave a fraction ligated of 0.0282.

In the case of TATACTTGTCGAAGACATTTGGATGGGTTGA [3d862], the fraction ligated came to 0.762.

On to TATACTTGTCGAAGACCTTTGGATGGGTTGA [3d861], for which the fraction ligated was 0.478.

In turn, TATACTTGTCGAAGCACTTTGGATGGGTTGA [3d859] came in with a fraction ligated of 0.703.

For the sequence TATACTTGTCGAGACACTTTGGATGGGTTGA [3d857], the fraction ligated came out at 0.704.

Consider TATACTTGTCGTAAAACTTTGGATGGGTTGA [3d883], for which the fraction ligated is 0.799.

As for TATACTTGTCGTAAACACTTGGATGGGTTGA [3d886], the fraction ligated turned out to be 0.227.

Turning to TATACTTGTCGTAAACACTTTGATGGGTTGA [3d887], the fraction ligated amounted to 0.182.

Regarding TATACTTGTCGTAAACACTTTGGAGGGTTGA [3d889], the fraction ligated was found to be 0.0111.

As for TATACTTGTCGTAAACACTTTGGATGGGTTA [3d891], the fraction ligated came to 0.00216.

Sequence TATACTTGTCGTAAACACTTTGGATGGGTTG [3d892] yielded a fraction ligated of 0.0953.

Turning to TATACTTGTCGTAAACACTTTGGATGGGTTGA [2d78], the fraction ligated amounted to 0.493.

In turn, TATACTTGTCGTAAACACTTTGGATGGTTGA [3d890] returned a fraction ligated of 0.0192.

Turning to TATACTTGTCGTAAACACTTTGGTGGGTTGA [3d888], the fraction ligated came to 0.019.

TATACTTGTCGTAAACATTTGGATGGGTTGA [3d885]: the fraction ligated is 0.78.

TATACTTGTCGTAAACCTTTGGATGGGTTGA [3d884] displayed a fraction ligated of 0.494.

Consider TATACTTGTCGTAACACTTTGGATGGGTTGA [3d871], for which the fraction ligated worked out at 0.27.

In turn, TATACTTGTCGTAAGAACTTGGATGGGTTGA [3d904] yielded a fraction ligated of 0.717.

Take TATACTTGTCGTAAGAACTTTGATGGGTTGA [3d905]: the fraction ligated turned out to be 0.794.

For the sequence TATACTTGTCGTAAGAACTTTGGAGGGTTGA [3d907], the fraction ligated amounted to 0.032.

In turn, TATACTTGTCGTAAGAACTTTGGATGGGTTA [3d909] showed a fraction ligated of 0.0459.

Sequence TATACTTGTCGTAAGAACTTTGGATGGGTTG [3d910] had a fraction ligated of 0.724.

Consider TATACTTGTCGTAAGAACTTTGGATGGGTTGA [2d80], for which the fraction ligated worked out at 0.786.

Consider TATACTTGTCGTAAGAACTTTGGATGGTTGA [3d908], for which the fraction ligated worked out at 0.0441.

TATACTTGTCGTAAGAACTTTGGTGGGTTGA [3d906] displayed a fraction ligated of 0.0323.

Sequence TATACTTGTCGTAAGAATTTGGATGGGTTGA [3d903] came in with a fraction ligated of 0.769.

In the case of TATACTTGTCGTAAGACACTGGATGGGTTGA [3d925], the fraction ligated stood at 0.74.

Regarding TATACTTGTCGTAAGACACTTGATGGGTTGA [3d926], the fraction ligated amounted to 0.765.

TATACTTGTCGTAAGACACTTGGAGGGTTGA [3d928] returned a fraction ligated of 0.0325.

In the case of TATACTTGTCGTAAGACACTTGGATGGGTTA [3d930], the fraction ligated stood at 0.0948.

Consider TATACTTGTCGTAAGACACTTGGATGGGTTG [3d931], for which the fraction ligated was 0.756.

For the sequence TATACTTGTCGTAAGACACTTGGATGGGTTGA [2d83], the fraction ligated worked out at 0.785.

As for TATACTTGTCGTAAGACACTTGGATGGTTGA [3d929], the fraction ligated turned out to be 0.0929.

As for TATACTTGTCGTAAGACACTTGGTGGGTTGA [3d927], the fraction ligated came to 0.049.

In turn, TATACTTGTCGTAAGACACTTTATGGGTTGA [3d932] registered a fraction ligated of 0.0481.

Consider TATACTTGTCGTAAGACACTTTGAGGGTTGA [3d934], for which the fraction ligated came out at 0.0304.

TATACTTGTCGTAAGACACTTTGATGGGTTA [3d936] registered a fraction ligated of 0.0174.

Take TATACTTGTCGTAAGACACTTTGATGGGTTG [3d937]: the fraction ligated is 0.537.

In turn, TATACTTGTCGTAAGACACTTTGATGGGTTGA [2d84] had a fraction ligated of 0.794.

For TATACTTGTCGTAAGACACTTTGATGGTTGA [3d935], the fraction ligated was determined as 0.0546.

In turn, TATACTTGTCGTAAGACACTTTGGAGGGTTA [3d943] gave a fraction ligated of 0.00392.

In turn, TATACTTGTCGTAAGACACTTTGGAGGGTTG [3d944] returned a fraction ligated of 0.00819.

In turn, TATACTTGTCGTAAGACACTTTGGAGGGTTGA [2d86] returned a fraction ligated of 0.0419.

Take TATACTTGTCGTAAGACACTTTGGAGGTTGA [3d942]: the fraction ligated stood at 0.00359.

In the case of TATACTTGTCGTAAGACACTTTGGATGGGTT [3d947], the fraction ligated is 0.00683.

The sequence TATACTTGTCGTAAGACACTTTGGATGGGTTA [2d88] showed a fraction ligated of 0.0592.

Consider TATACTTGTCGTAAGACACTTTGGATGGGTTG [2d89], for which the fraction ligated stood at 0.733.

For TATACTTGTCGTAAGACACTTTGGATGGGTTGA [1d4], the fraction ligated is 0.791.

For TATACTTGTCGTAAGACACTTTGGATGGTTA [3d945], the fraction ligated worked out at 0.0396.

As for TATACTTGTCGTAAGACACTTTGGATGGTTG [3d946], the fraction ligated worked out at 0.0597.

For the sequence TATACTTGTCGTAAGACACTTTGGATGGTTGA [2d87], the fraction ligated stood at 0.127.

TATACTTGTCGTAAGACACTTTGGGGGTTGA [3d938] gave a fraction ligated of 0.0526.

In turn, TATACTTGTCGTAAGACACTTTGGTGGGTTA [3d940] gave a fraction ligated of 0.00259.

For the sequence TATACTTGTCGTAAGACACTTTGGTGGGTTG [3d941], the fraction ligated was 0.0139.

TATACTTGTCGTAAGACACTTTGGTGGGTTGA [2d85] returned a fraction ligated of 0.0569.

The sequence TATACTTGTCGTAAGACACTTTGGTGGTTGA [3d939] displayed a fraction ligated of 0.00845.

TATACTTGTCGTAAGACACTTTGTGGGTTGA [3d933] displayed a fraction ligated of 0.0152.

TATACTTGTCGTAAGACATTGGATGGGTTGA [3d918] yielded a fraction ligated of 0.786.

As for TATACTTGTCGTAAGACATTTGATGGGTTGA [3d919], the fraction ligated came out at 0.735.

In the case of TATACTTGTCGTAAGACATTTGGAGGGTTGA [3d921], the fraction ligated came out at 0.0163.

As for TATACTTGTCGTAAGACATTTGGATGGGTTA [3d923], the fraction ligated was 0.0964.

With TATACTTGTCGTAAGACATTTGGATGGGTTG [3d924], the fraction ligated was 0.714.

The sequence TATACTTGTCGTAAGACATTTGGATGGGTTGA [2d82] returned a fraction ligated of 0.751.

The sequence TATACTTGTCGTAAGACATTTGGATGGTTGA [3d922] came in with a fraction ligated of 0.0978.

Regarding TATACTTGTCGTAAGACATTTGGTGGGTTGA [3d920], the fraction ligated is 0.0527.

On to TATACTTGTCGTAAGACCTTGGATGGGTTGA [3d911], for which the fraction ligated worked out at 0.777.

Regarding TATACTTGTCGTAAGACCTTTGATGGGTTGA [3d912], the fraction ligated came to 0.706.

With TATACTTGTCGTAAGACCTTTGGAGGGTTGA [3d914], the fraction ligated came to 0.0249.
